Reference: paper PMC5549741, “Engineering double-stranded RNA binding activity into the Drosha double-stranded RNA binding domain results in a loss of microRNA processing function”

T1: Drosha-Quad dsRBD (human, UniProt Q9NRR4 1259-1337, K1262I;I1317K;Q1318K;E1321K)
T1 sequence: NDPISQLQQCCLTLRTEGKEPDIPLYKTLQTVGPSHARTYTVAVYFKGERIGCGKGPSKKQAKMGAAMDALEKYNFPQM

B1: ds44 (dsRNA)
RNA 1: GGUCAGCAGUGCCUUAGCAGCACGUAAAUAUUGGCGUUAAGACC
RNA 2: GGUCUUAACGCCAAUAUUUACGUGCUGCUAAGGCACUGCUGACC
B2: ds33 (dsRNA)
RNA 1: GGUCAGCAGUGCCUUAGCAGCACGUAAAUAUGG
RNA 2: CCAUAUUUACGUGCUGCUAAGGCACUGCUGACC
B3: pri-mir-16-1 (structured_RNA)
RNA: GGGUGAUAGCAAUGUCAGCAGUGCCUUAGCAGCACGUAAAUAUUGGCGUUAAGAUUCUAAAAUUAUCUCCAGUAUUAACUGUGCUGCUGAAGUAAGGUUGACCAUACUCUAC
B4: ds22 (dsRNA)
RNA 1: GUCAGCAGUGCCUUAGCAGCAC
RNA 2: GUGCUGCUAAGGCACUGCUGAC

Target: T1, Drosha-Quad dsRBD
Test: EMSA; 50 mM sodium cacodylate pH 6.0, 50 mM KCl, 5% glycerol, 1 mM DTT, 0.1 mg/mL BSA, 0.1 mg/mL herring sperm DNA, 30 min at room temperature; 10% native gel at 4 C; Hill fit
Details: protein: recombinant, tags: pET-47b(+) vector
[1] = label: 5'-32P top strand, blunt

Row | Binder | Kd [1] [µM] | Kd (label: 32P (5' end implied), hairpin, stem region contains 39 bp) [µM]
1 | B1 | 6.5 ± 0.6 | 
2 | B2 | 7.8 ± 0.2 | 
3 | B3 |  | 2.8 ± 0.1
4 | B4 | 13.4 ± 0.4 | 
